Experimental data taken from patent US11952373B2, “Method of treating hypercytokinemia by administering the CCR5/CCL5 (RANTES) interaction inhibitor maraviroc” (priority 2020, dated 2024).
“Also recorded” adds a separate entry of the source.

Experiments:
IL-6 = assay: Plasma cytokine/chemokine panel in critical COVID-19 patients, IL-6; format: in vivo, human; details: Day 7 post-leronlimab vs Day 0, critical COVID-19 patients
From the text: (§1) To determine the extent and phenotype of “cytokine storm” cytokines and chemokines in critical COVID-19, a panel of 38 cytokines/chemokines was quantified in plasma from the ten critical COVID-19 patients at Day 0, Day 3 and Day 7 post-leronlimab therapy.

CCL5/RANTES = assay: Plasma cytokine/chemokine panel in critical COVID-19 patients, CCL5/RANTES; format: in vivo, human
From the text: as §1

[1] = system: CD8 and CD4 T-cells (PD-1, LAG-3, cleaved caspase 3); assay: Immunophenotyping / high parameter flow cytometry of T-cells and exhaustion markers in critical COVID-19 patients; format: in vivo, human; details: for exhaustion markers (PD-1, LAG-3, cleaved caspase 3) on CD8 and CD4 T-cells: after 700 mg leronlimab, all ten patients
[2] = system: critically ill patients with COVID-19; assay: Clinical outcome of critically ill COVID-19 patients given leronlimab; format: in vivo, human; details: by Day 14, 10 critically ill COVID-19 patients
CCR5 = CCR5 (Homo sapiens, UniProt P51681); details: day 7, all ten critical COVID-19 patients, 700 mg leronlimab
CCR5, sequence (P51681 whole entry): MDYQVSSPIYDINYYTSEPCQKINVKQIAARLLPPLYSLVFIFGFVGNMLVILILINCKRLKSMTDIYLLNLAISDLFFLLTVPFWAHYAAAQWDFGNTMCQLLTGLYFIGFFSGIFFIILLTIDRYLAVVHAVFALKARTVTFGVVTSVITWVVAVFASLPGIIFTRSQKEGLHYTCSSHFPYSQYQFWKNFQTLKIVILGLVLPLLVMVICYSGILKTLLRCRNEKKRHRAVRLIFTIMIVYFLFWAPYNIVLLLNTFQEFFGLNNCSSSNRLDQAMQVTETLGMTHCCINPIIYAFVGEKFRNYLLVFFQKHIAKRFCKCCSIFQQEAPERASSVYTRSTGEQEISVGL

B1: leronlimab: a humanized monoclonal antibody directed against CCR5 (antibody, chains of the INN, looked up, V domains shown)
VH: EVQLVESGGGLVKPGGSLRLSCAASGYTFSNYWIGWVRQAPGKGLEWIGDIYPGGNYIRNNEKFKDKTTLSADTSKNTAYLQMNSLKTEDTAVYYCGSSFGSNYVFAWFTYWGQGTLVTVSS
VL: DIVMTQSPLSLPVTPGEPASISCRSSQRLLSSYGHTYLHWYLQKPGQSPQLLIYEVSNRFSGVPDRFSGSGSGTDFTLKISRVEAEDVGVYYCSQSTHVPLTFGQGTKVEIK
IL-6
  plasma IL-6 level change: reduces IL-6; also recorded: significantly decreased; also recorded: dropped dramatically
CCL5/RANTES; Day 7 post-leronlimab, critical COVID-19 patients
  plasma CCL5/RANTES level change: remained high; also recorded: did not drop as abruptly
CCL5/RANTES; Day 14, patients where data was available
  plasma CCL5/RANTES level change: initiation of a drop
[1]
  exhaustion markers (PD-1, LAG-3, cleaved caspase 3) on CD8 and CD4 T-cells: improvement in exhaustion markers
[1]; listed as Leronlimab
  exhaustion markers (PD-1, LAG-3, cleaved caspase 3) on CD8 and CD4 T-cells: improvements in exhaustion markers
[1]; all patients
  immune restoration including T-cell numbers: immune restoration
[1]; as little as 3 days post-therapy
  T-cell level and CD4/CD8 ratio: begins to restore T-cell level and correct the gross alteration of CD4/CD8 ratio
[1]; by Day 7 after 700 mg leronlimab
  immune profile compared to normal control blood: resembled the normal control blood
[1]; following 7 days of leronlimab, compared to Day 0
  expression of PD-1 and LAG3 on T-cells: significantly decreases
[2]
  patients extubated and released: 4
  patients surviving: six out of 10
CCR5
  blockade of CCR5 as determined by receptor occupancy: ~100%
